Reference: patent US5985278A (Merck Patent Gesellschaft mit Beschrankter Haftung, priority 1994, dated 1999)
Values joined by “and” are separate entries in the source; they are usually repeats but may differ in a detail not shown here. Equal entries are not always repeated. Where two headings read alike, the source gives them in different places. Blank lines part the entries; values can stand above or below the molecule they belong to.

Assays:
[1] = tested on: human melanoma and carcinoma cell lines; test: αV-mediated cell attachment to vitronectin, cell line panel; assay type: cell-based; conditions: read-out: IC50 in cellular assay
Procedure: (§1) Cell Attachment Assays were as previously described (Goodman et al., 1991), using hexosaminidase activity (Landegren, 1984) to detect attached cells. Dilutions and cell suspensions were in attachment buffer (RPMI, 1% BSA, 25 mM HEPES; pH 7.4). Matrix proteins were coated onto 96- or 48-well plates, the wells were blocked with BSA and serially diluted MAbs were added to the wells followed by cells (2.5×10^4 -5×10^4). After 1 h at 37° C., non-adherent cells were washed away and attached cells counted against a standard curve run in parallel. Inhibition of attachment was calculated by using wells with no MAbs as reference. Typically, over 70% of added cells had attached to vitronectin at 1 h. Cell attachment to wells coated with BSA alone was routinely less than 5% of specifically attached cells.

[2] = target: purified human placental integrin αvβ3 (human) (UniProt P06756); test: pre-block competition: ligand pre-bound to αvβ3-coated plates, labelled 17E6 as probe
[3] = target: purified human placental integrin αvβ3 (human) (UniProt P06756); test: isolated receptor assay, vitronectin on αvβ3-coated plates
[4] = target: T1, integrin αvβ3 on human cells (human, UniProt P06756)
[5] = target: purified human placental integrin αvβ3 (human) (UniProt P06756); test: ELISA on isolated αvβ3
[6] = target: T1, integrin αvβ3 on human cells; test: cell-based or functional assay
[7] = target: T2, integrin αvβ5 on human cells (human, UniProt P06756); test: cell-based or functional assay
[8] = target: integrin αvβ1 on V+B2 cells
[9] = target: human αv-integrin chain on the cell surface (human) (UniProt P06756)
[10] = target: human αv-integrin chain on the cell surface (human) (UniProt P06756); remark: listed apart in the source
[11] = target: integrin β3 chain, intracellular pool of M21-L cells (human, UniProt P05106); test: flow cytometry, permeabilized M21-L cells
[12] = target: T2, integrin αvβ5 on human cells; design: IC50, M21 cell attachment to vitronectin: unit not given beside the values
[13] = target: human αv-integrin chain on the cell surface (human) (UniProt P06756); design: IC50, M21 cell attachment to vitronectin: unit not given beside the values
[14] = target: purified human placental integrin αvβ3 (human) (UniProt P06756); test: direct competition with biotinylated vitronectin on αvβ3-coated plates, 70 nM antibody
[15] = target: integrin αIIbβ3 on M21-L-IIb cells (human, UniProt P08514); test: CELISA, fixed M21-L-IIb cells
[16] = target: human αv-integrin chain on the cell surface (human, UniProt P06756); test: cell-based or functional assay
αvβ5 (UCLA-P3 cells) = test: Cell attachment to vitronectin mediated by αvβ5 (UCLA-P3 cells); assay type: cell-based, human; conditions: vitronectin, FIG. 11
Procedure: as §1

αvβ1 (V+B2 cells) = test: Cell attachment to vitronectin mediated by αvβ1 (V+B2 cells); assay type: cell-based; conditions: FIG. 11
Procedure: as §1

purified αvβ3 = test: ELISA on purified αvβ3; assay type: binding, human; conditions: FIG. 10
[17] = tested on: αvβ3 (WM164 and M21 cells); test: Cell attachment to vitronectin mediated by αvβ3 (WM164 and M21 cells); assay type: cell-based, human; conditions: FIG. 11
Procedure: as §1

Molecule: CC(C)[C@@H]1NC(=O)[C@@H](Cc2ccccc2)NC(=O)[C@H](CC(=O)O)NC(=O)CNC(=O)[C@H](CCCNC(=N)N)NC1=O [cRGDfV, cyclic peptide: Arg-Gly-Asp-DPhe-Val, reference compound]
IC50 [1]: ~1000 nM

Molecule: fibrinogen (ligand)
% block of labelled 17E6 binding [2]: < 10%

Molecule: LM609 (antibody)
IC50, WM793 cell attachment to vitronectin [4]: 0.6 µg/mL

B1: 17E6 F(ab')2 fragment (other)
VH: QVQLQQSGAELAEPGASVKMSCKASGYTFSSFWMHWVKQRPGQGLEWIGYINPRSGYTECNEIFRDKATMTADTSSSTAYMQLSGLTSEDSAVYYCASFLGRGAMDYWGQGTSVTVSS
VL: DIQMTQTTSSLSASLGDRVIISCRASQDISNYLSWYQQKPDGTVKLLIFYTSKLHSGVPSRFSGSGSGTDYSLTISNLDQEDIATYFCQQGNTFPYTFGGGTKVEMR
EC50 [5]: 0.001 µg/mL
IC50, WM164 and M21 cell attachment to vitronectin [6]: ~0.5 µg ml^-1 and ~3 nM
IC50, UCLA-P3 cell attachment to vitronectin [7]: ~0.1 µg ml^-1 and ~700 pM

B2: 17E6 F(ab') fragment (Fab, V domains shown)
VH: B1 VH
VL: B1 VL
fold activity in cell attachment to vitronectin, against αvβ3 [8]: 10000 fold
EC50 [5]: 0.001 µg/mL
IC50, WM164 and M21 cell attachment to vitronectin [6]: > 50 µg ml^-1 and > 400 nM
fold activity in cell attachment to vitronectin, against αvβ3 [7]: 10000 fold

B4: F(ab')2: F(ab')2 fragment of 17E6 prepared by pepsin cleavage (antibody, V domains shown)
VH: B1 VH
VL: B1 VL
IC50, cell attachment mediated by αvβ5 (UCLA-P3 cells) (αvβ5 (UCLA-P3 cells)): ~ 0.1 μg ml^-1
IC50, cell attachment mediated by αvβ1 (V+B2 cells) (αvβ1 (V+B2 cells)): ~ 0.1 μg ml^-1
50% saturation in ELISA on isolated αvβ3 (purified αvβ3): ~ 1 ng ml^-1
IC50, αvβ3 attachment (WM164 and M21 cells) [17]: ~ 0.5 μg ml^-1

Now from value to molecule:

saturation concentration [3]: 5 µg ml^-1 and 10 nM
% block of labelled 17E6 binding [2]: < 10%
Molecule: vitronectin (from UniProt P04004) (ligand)

IC50, cellular attachment assay [9]: 0.1 µg/mL
IC50, αV-mediated cell attachment [10]: 0.3 to 1 nM
binding result [11]: no binding
IC50, UCLAP3 cell attachment to vitronectin [12]: 0.03 µg/mL
IC50, M21 cell attachment to vitronectin [13]: 0.1
M21 cell attachment to vitronectin, purified antibody [13]: 85%
% inhibition of vitronectin binding [14]: < 30%
binding result [15]: no binding
IC50, WM164 and M21 cell attachment to vitronectin [6]: ~0.5 µg ml^-1 and ~3 nM
IC50, WM793 cell attachment to vitronectin [6]: ~0.06 µg/mL
B3: monoclonal antibody 17E6 (antibody, V domains shown)
VH: B1 VH
VL: B1 VL

IC50, αV-mediated cell attachment [16]: ~5000 nM
Molecule: GRGDSPK [linear peptide GRGDSPK]
